Laboratory results reported in patent US20260274955A1 (JANUX THERAPEUTICS, published 2026).

B1: Phage-314 (peptide)
peptide: YCDGHLKEYMAKCL
B2: Phage-371 (peptide)
peptide: YCDGHLSEYMFKCL
B3: Phage-446 (peptide)
peptide: YCDGHAIEYMAKCL
B4: Phage-315 (peptide)
peptide: YCDGHRPEYMEKCL
B5: Phage-316 (peptide)
peptide: YCDGHLPEYMGKCL
B6: Phage-321 (peptide)
peptide: YCEGHSPEYMWKCL
B7: Phage-328 (peptide)
peptide: YCEGHSYEYMWKCL
B8: Phage-329 (peptide)
peptide: YCEGHLPEYMMKCL
B9: Phage-330 (peptide)
peptide: YCDGHLPEYMRKCL
B10: Phage-349 (peptide)
peptide: YCEGHLPEYMRKCL
B11: Phage-377 (peptide)
peptide: YCEGHLPAYMQKCL
B12: Phage-385 (peptide)
peptide: YCEGHSPEYMRKCL
B13: Phage-447 (peptide)
peptide: YCEGHKPEYMQKCL
B14: Phage-317 (peptide)
peptide: YCEGHLQEYMEKCL
B15: Phage-389 (peptide)
peptide: YCVGHLQEYMEKCL
B16: Phage-348 (peptide)
peptide: YCEGHRPEYMAKCL
B17: Phage-318 (peptide)
peptide: YCEGHIPEYMAKCL
B18: Phage-325 (peptide)
peptide: YCEGHMSEYMAKCL
B19: Phage-336 (peptide)
peptide: YCEGHRSEYMAKCL
B20: Phage-319 (peptide)
peptide: YCDGHSPEYMPKCL
B21: Phage-320 (peptide)
peptide: YCDGHLAEYMPKCL
B22: Phage-375 (peptide)
peptide: YCDGHLAEYMVKCL
B23: Phage-322 (peptide)
peptide: YCDGHIDEYLQKCL
B24: Phage-323 (peptide)
peptide: YCEGHVAEYMLKCL
B25: Phage-344 (peptide)
peptide: YCEGHSQEYMQKCL
B26: Phage-443 (peptide)
peptide: YCEGHSAEYMQKCL
B27: Phage-324 (peptide)
peptide: YCEGHLSEYMSKCL
B28: Phage-326 (peptide)
peptide: YCDGHSWEYIQKCL
B29: Phage-327 (peptide)
peptide: YCEGHSLEYMAKCL
B30: Phage-331 (peptide)
peptide: YCEGHSPLYMSKCL
B31: Phage-332 (peptide)
peptide: YCEGHSWEYIGKCL
B32: Phage-333 (peptide)
peptide: YCDGHSALYMSKCL
B33: Phage-334 (peptide)
peptide: YCDGHTGVYFYKCL
B34: Phage-335 (peptide)
peptide: YCEGHTSEYMNKCL
B35: Phage-337 (peptide)
peptide: YCDGHLAMYMDKCL
B36: Phage-338 (peptide)
peptide: YCDGHMPEYLAKCL
B37: Phage-339 (peptide)
peptide: YCEGHAAEYMSKCL
B38: Phage-340 (peptide)
peptide: YCAGHSSEYMWKCL

Each binder was assayed against T1, anti-CD28 Fab (SEQ ID NOs: 202, 203) (assay: phage binding ELISA; biotinylated Fab on neutravidin plate;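 note: clonal phage supernatants added to Fab wells pretreated with CD28 antigen or with blocking buffer only, bound phage read out via HRP-linked anti-M13 antibody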).
T1 construct: biotinylated and captured on neutravidin coated plates in the phage ELISA
T1 sequence (VH, as listed by the source, chain 1 of 2): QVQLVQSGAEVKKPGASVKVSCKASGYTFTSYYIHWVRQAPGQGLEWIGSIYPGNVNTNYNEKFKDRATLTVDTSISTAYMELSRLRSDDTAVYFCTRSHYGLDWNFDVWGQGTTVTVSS
T1 sequence (VL, as listed by the source, chain 2 of 2): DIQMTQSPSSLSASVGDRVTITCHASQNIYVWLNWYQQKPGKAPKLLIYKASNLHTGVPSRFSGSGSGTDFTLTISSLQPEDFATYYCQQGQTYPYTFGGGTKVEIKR
Description: (§1) Clonal phage were harvested as crude supernatants and screened via standard ELISAs. […] Prior to the addition of clonal phage, wells were incubated with blocking buffer and CD28 antigen or blocking buffer alone. Without washing or aspirating, clonal phage supernatants were then added to the wells and incubated for a short time. Wells were then washed followed by detection of bound phage using a horse radish conjugated anti-M13 antibody.

| Binder | Anti-CD28 Fab (SEQ ID NOs: 202, 203) signal |
| --- | --- |
| B1 | 1.9 |
| B2 | 1.79 |
| B3 | 1.69 |
| B4 | 1.9 |
| B5 | 1.89 |
| B6 | 1.89 |
| B7 | 1.88 |
| B8 | 1.88 |
| B9 | 1.88 |
| B10 | 1.83 |
| B11 | 1.78 |
| B12 | 1.77 |
| B13 | 1.69 |
| B14 | 1.89 |
| B15 | 1.76 |
| B16 | 1.83 |
| B17 | 1.89 |
| B18 | 1.88 |
| B19 | 1.86 |

| Binder | Anti-CD28 Fab (SEQ ID NOs: 202, 203) signal |
| --- | --- |
| B20 | 1.89 |
| B21 | 1.89 |
| B22 | 1.79 |
| B23 | 1.88 |
| B24 | 1.88 |
| B25 | 1.84 |
| B26 | 1.7 |
| B27 | 1.88 |
| B28 | 1.88 |
| B29 | 1.88 |
| B30 | 1.87 |
| B31 | 1.87 |
| B32 | 1.87 |
| B33 | 1.87 |
| B34 | 1.87 |
| B35 | 1.86 |
| B36 | 1.86 |
| B37 | 1.86 |
| B38 | 1.85 |

These binders were tested against T1, anti-CD28 Fab (SEQ ID NOs: 202, 203) (assay: phage binding ELISA; Fab wells pre-incubated with CD28 antigen (competitor);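 note: clonal phage supernatants added to wells preincubated with CD28 antigen in blocking buffer versus blocking buffer alone, washed, bound phage read by HRP-conjugated anti-M13 antibody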).
Description: as §1

| Binder | Anti-CD28 Fab signal in the presence of CD28 |
| --- | --- |
| B1 | 0.07 |
| B2 | 0.1 |
| B3 | 0.08 |
| B4 | 0.06 |
| B5 | 0.11 |
| B6 | 0.09 |
| B7 | 0.08 |
| B8 | 0.27 |
| B9 | 0.08 |
| B10 | 0.06 |
| B11 | 0.07 |
| B12 | 0.08 |
| B13 | 0.06 |
| B14 | 0.1 |
| B15 | 0.06 |
| B16 | 0.07 |
| B17 | 0.06 |
| B18 | 0.11 |
| B19 | 0.06 |

| Binder | Anti-CD28 Fab signal in the presence of CD28 |
| --- | --- |
| B20 | 0.08 |
| B21 | 0.07 |
| B22 | 0.08 |
| B23 | 0.06 |
| B24 | 0.05 |
| B25 | 0.05 |
| B26 | 0.29 |
| B27 | 0.09 |
| B28 | 0.07 |
| B29 | 0.08 |
| B30 | 0.09 |
| B31 | 0.07 |
| B32 | 0.08 |
| B33 | 0.08 |
| B34 | 0.06 |
| B35 | 0.08 |
| B36 | 0.07 |
| B37 | 0.07 |
| B38 | 0.07 |
